Patent US20140056926A1 (SNU R AND DB FOUNDATION, published 2014)

Target: T1, integrin alpha2b beta3 (UniProt P08514 32-993; P05106 27-718)
T1 construct: also called integrin α2b β3; integrin alpha2 beta3
Experiment: ELISA on coated integrin alpha2b beta3 (100 ng per well), anti-human Fab-HRP, absorbance 405 nm

- EC50 (read off the curve): ~0.8 nM
B1: abciximab (ReoPro) (Fab, V domains shown)
VH: EVQLQQSGTVLARPGASVKMSCEASGYTFTNYWMHWVKQRPGQGLEWIGAIYPGNSDTSYIQKFKGKAKLTAVTSTTSVYMELSSLTNEDSAVYYCTLYDGYYVFAYWGQGTLVTVSA
VL: EIVLTQSPVTLSVTPGDSVSLSCRASRDISNNLHWFQQTSHESPRLLIKYASQSMSGIPSRFSGSGSGTDFTLSINSVETEDFGMYFCQQTNSWPYTFGGGTKLEIK
